Km data for one protein are collected here from ChEMBL document CHEMBL2074163, “Identification of monocarboxylate transporter 8 as a specific thyroid hormone transporter” (J Biol Chem, 2003).

What all share (assay type): functional, cell-based
What all share (settings): Oocyte

Substrate in data set [1]: NC(Cc1ccc(Oc2cc(I)c(O)c(I)c2)c(I)c1)C(=O)O
The experiment in a line: (§1) TP_TRANSPORTER: uptake in Xenopus laevis oocytes.

Substrate in data set [2]: N[C@@H](Cc1cc(I)c(Oc2cc(I)c(O)c(I)c2)c(I)c1)C(=O)O
The data set is described as §1.

Substrate in data set [3]: N[C@@H](Cc1ccc(Oc2cc(I)c(O)c(I)c2)c(I)c1)C(=O)O
Described as §1.

B1: Monocarboxylate transporter 8 (Rattus norvegicus), Q8K1P8 (protein)
chain: MALPSPASEEAEGPCQEANQEYQEPVCSPVPEPEPEPEPEPEPEPEPVPVPPPEPQPEPEPQPLPDPAPLPVLGFEAEPVQEPEPTPTVETRGTARGFQPPEGGFGWIVVFAATWCNGSIFGIHNSVGILYSMLLEEEKEKNRQVEFQAAWVGALAMGMIFFCSPIVSIFTDRLGCRITATTGAAVAFIGLHTSSFTSSLSLRYFTYGILFGCGCSFAFQPSLVILGHYFQRRLGLANGVVSAGSSIFSMSFPFLIKMLGDRIKLAQTFQVLSTFMFVLTLLSLTYRPLLPSSQDTPSKRGAHTLRQRFLVQFRKYFNMRVFRQRTYRIWAFGIAAAALGYFVPYVHLMKYVEDKFKEIKETWVLLVCIGATSGLGRLVSGHISDSIPGLKKIYLQVLSFLLLGLMSMMIPLCRDFGGLIVVCLFLGLCDGFFITIMAPIAFELVGPMQASQAIGYLLGMMALPMIAGPPIAGLLRNCFGNYHVAFYFAGVPPIIGAVILFFVPLMHQRMFKKEQRESSKDKMLSHDPDPNGELLPGSPTPEEPI
In the case of B1, the Michaelis-Menten constant (Km) in data set [1] was found to be 2.2 µM; in data set [2] it was 4.7 µM; in data set [3], 4 µM.
